From US20040214988, “Method for stabilization of proteins using non-natural amino acids” (California Institute of Technology, published 2004)

Columns and labels:
[1] = target: Tfl-bZip (GCN4 bZip segment 226-281 with Tfl-GCN4-p1 dimerization domain) four d-position Leu of the GCN4-p1 zipper replaced by 5,5,5-trifluoroleucine (UniProt P03069); assay: EMSA; settings: densitometry of mobility shift
[2] = target: T1, Leu-bZip (GCN4 bZip segment, residues 226-281) (UniProt P03069 P03069:226-281); assay: EMSA; densitometry of mobility shift; settings: protein: synthetic; tags: 56-residue peptide; chain copies: 2 (stated, dimer)
T1 sequence (P03069 226-281, one chain of several): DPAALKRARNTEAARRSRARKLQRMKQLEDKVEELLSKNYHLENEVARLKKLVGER

[3] = target: T1, Leu-bZip (GCN4 bZip segment, residues …); assay: EMSA; no protein-bound DNA seen; settings: protein: synthetic; tags: 56-residue peptide; chain copies: 2 (stated, dimer)

Sequence of Tfl-bZip (GCN4 bZip segment 226-281 with Tfl-GCN4-p1 dimerization domain) four d-position Leu of the GCN4-p1 zipper replaced by 5,5,5-trifluoroleucine (P03069 whole entry, the tested form may be a part): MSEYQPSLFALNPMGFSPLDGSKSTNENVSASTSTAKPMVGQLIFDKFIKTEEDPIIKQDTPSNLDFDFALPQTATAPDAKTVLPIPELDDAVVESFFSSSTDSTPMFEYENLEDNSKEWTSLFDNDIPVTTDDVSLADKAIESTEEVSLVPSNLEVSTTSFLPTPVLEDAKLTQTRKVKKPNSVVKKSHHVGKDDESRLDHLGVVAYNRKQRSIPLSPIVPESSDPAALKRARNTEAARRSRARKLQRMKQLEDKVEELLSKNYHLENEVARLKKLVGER

With “GTGGAGATGACTCATCTCCGG (double strand) [AP-1 site oligonucleotide]” the Kd [1] was 0.0125 µM.

With “TGGAGATGACGTCATCTCCT (double strand) [CREB site oligonucleotide]” the Kd ([1]; CD at 0 C also shows coil-to-helix transition on CREB DNA) was 0.0054 µM.

B1: AP-1 site oligonucleotide (dsDNA)
DNA 1: GTGGAGATGACTCATCTCCGG
DNA 2: CCGGAGATGAGTCATCTCCAC
B1 gave a Kd [2] of 0.0128 µM.

B2: NON nonspecific oligonucleotide (dsDNA)
DNA 1: GATCCCAACACGTGTTGGGATC
DNA 2: GATCCCAACACGTGTTGGGATC
B2: no binding [3].
